# T1: Human Glu-plasminogen
# T1 chain: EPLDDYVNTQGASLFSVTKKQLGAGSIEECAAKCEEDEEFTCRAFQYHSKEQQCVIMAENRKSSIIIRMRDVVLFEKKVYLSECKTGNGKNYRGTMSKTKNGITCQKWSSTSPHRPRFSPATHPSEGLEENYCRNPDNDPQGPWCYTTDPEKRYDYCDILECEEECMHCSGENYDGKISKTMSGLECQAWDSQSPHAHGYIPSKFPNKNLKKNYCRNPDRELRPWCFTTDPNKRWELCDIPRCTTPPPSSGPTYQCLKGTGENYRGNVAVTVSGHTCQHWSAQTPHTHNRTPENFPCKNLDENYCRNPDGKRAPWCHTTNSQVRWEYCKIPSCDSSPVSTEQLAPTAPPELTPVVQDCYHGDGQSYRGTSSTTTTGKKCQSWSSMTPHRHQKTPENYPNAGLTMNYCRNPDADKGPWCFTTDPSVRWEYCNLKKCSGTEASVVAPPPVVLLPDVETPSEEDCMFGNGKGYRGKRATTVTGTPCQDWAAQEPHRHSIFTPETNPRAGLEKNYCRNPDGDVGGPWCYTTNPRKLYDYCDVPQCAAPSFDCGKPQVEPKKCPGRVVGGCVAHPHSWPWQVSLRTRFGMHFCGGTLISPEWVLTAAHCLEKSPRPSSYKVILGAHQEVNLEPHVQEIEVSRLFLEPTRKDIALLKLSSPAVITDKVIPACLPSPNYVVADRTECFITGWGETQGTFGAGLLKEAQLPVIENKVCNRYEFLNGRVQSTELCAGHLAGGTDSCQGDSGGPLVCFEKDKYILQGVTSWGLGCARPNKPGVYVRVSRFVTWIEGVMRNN
# B1: Human tissue plasminogen activator (protein)
# chain: SYQVICRDEKTQMIYQQHQSWLRPVLRSNRVEYCWCNSGRAQCHSVPVKSCSEPRCFNGGTCQQALYFSDFVCQCPEGFAGKCCEIDTRATCYEDQGISYRGTWSTAESGAECTNWNSSALAQKPYSGRRPDAIRLGLGNHNYCRNPDRDSKPWCYVFKAGKYSSEFCSTPACSEGNSDCYFGNGSAYRGTHSLTESGASCLPWNSMILIGKVYTAQNPSAQALGLGKHNYCRNPDGDAKPWCHVLKNRRLTWEYCDVPSCSTCGLRQYSQPQFRIKGGLFADIASHPWQAAIFAKHRRSPGERFLCGGILISSCWILSAAHCFQERFPPHHLTVILGRTYRVVPGEEEQKFEVEKYIVHKEFDDDTYDNDIALLQLKSDSSRCAQESSVVRTVCLPPADLQLPDWTECELSGYGKHEALSPFYSERLKEAHVRLYPSSRCTSQHLLNRTVTDNMLCAGDTRSGGPQANLHDACQGDSGGPLVCLNDGRMTLVGIISWGLGCGQKDVPGVYTKVTNYLDWIRDNMRP
# Biological target: T1, Human Glu-plasminogen
protein,measurement,value
B1,conversion of plasminogen into plasmin (plasmin-selective chromogenic substrate),The time- and concentration-dependent conversion of plasminogen into plasmin at the fibrin-NETs lattice was reduced as compared to fibrin alone

# — patent US20240288446
